Patent publication US20090155833A1 (TEIJIN PHARMA, published 2009)

Biological target: T1, mouse GPR12 (mouse, UniProt P35412 1-334)
T1 sequence: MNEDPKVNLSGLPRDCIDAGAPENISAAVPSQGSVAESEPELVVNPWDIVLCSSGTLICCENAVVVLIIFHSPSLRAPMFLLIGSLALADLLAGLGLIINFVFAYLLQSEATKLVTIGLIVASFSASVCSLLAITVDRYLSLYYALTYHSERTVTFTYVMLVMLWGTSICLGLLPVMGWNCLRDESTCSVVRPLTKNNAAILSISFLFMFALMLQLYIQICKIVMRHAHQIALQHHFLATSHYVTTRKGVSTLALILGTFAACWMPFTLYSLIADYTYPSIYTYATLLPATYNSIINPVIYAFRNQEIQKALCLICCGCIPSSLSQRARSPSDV
Assay: cell-based or functional assay

## PDTGLYYDEYLKQVIDVLETDKHFREKLQK [Nesfatin-1M30]
  intracellular cAMP level (Fold against the (-) group), CHO-K1-GPR12 cells, 10^-9 M peptide with 10^-5 M Forskolin: ~5 fold
